# From patent US20250270304A1 (PHENOMIC AI, published 2025)
# Numbering of substitutions follows the chain as printed.
# T1: Mature Activin A (human, UniProt P08476 311-426)
# T1 construct: also called active Activin A; INHBA mature
# T1 sequence: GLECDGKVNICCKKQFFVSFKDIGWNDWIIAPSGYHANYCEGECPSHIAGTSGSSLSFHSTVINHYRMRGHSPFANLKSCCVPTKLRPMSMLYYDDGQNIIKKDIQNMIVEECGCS
# T2: Latent Activin A (human, UniProt P08476 21-426, limits assumed)
# T2 construct: also called INHBA latent
# T2 sequence: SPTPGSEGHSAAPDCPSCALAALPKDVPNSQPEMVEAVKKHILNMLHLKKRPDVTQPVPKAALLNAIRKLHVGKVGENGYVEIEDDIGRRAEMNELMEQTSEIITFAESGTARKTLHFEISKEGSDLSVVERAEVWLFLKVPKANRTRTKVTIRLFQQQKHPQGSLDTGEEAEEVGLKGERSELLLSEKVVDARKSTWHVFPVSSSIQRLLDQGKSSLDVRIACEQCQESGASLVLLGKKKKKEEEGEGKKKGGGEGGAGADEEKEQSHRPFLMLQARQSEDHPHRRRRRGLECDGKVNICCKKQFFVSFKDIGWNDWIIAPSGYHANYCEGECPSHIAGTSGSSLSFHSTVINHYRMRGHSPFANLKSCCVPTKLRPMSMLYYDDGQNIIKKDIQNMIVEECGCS
# T3: Inhibin A (Homo sapiens (Human), UniProt P05111 233-366; P08476 311-426)
# T3 sequence 1: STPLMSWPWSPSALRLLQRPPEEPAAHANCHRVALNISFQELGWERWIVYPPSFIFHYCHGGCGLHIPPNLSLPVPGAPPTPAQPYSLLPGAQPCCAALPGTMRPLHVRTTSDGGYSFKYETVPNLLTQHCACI
# T3 sequence 2: T1 sequence
# T4: Activin B (Homo sapiens (Human), UniProt P09529 293-407)
# T4 construct: also called Mature Activin B; mature Activin B
# T4 sequence: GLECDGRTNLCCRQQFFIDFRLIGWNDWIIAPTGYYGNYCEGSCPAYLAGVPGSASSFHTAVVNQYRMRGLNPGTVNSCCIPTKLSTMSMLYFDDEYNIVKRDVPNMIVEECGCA
# B1: AB345 (antibody, IgG1, V domains shown)
# VH: EVQLVESGGGLVQPGGSLRLSCAASGFTSSGYWMSWFRQAPGKGLELVASIGTAGVTYYPDSVKGRFTISRDNAKNSLYLQMNSLRAEDTAVYYCARGPHGPQQRLRFDPWGQGTLVTVSS
# VL: DIVMTQSPLSLPVTPGEPASISCRSSQSLLSSYGYHNLHWYLQKPGQSPQLLIYMGSIRAPGVPDRFSGSGSGTDFTLKISRVEAEDVGVYYCMQGTQAPRTFGGGTKVEIK
# B2: AB448 (antibody, IgG1, V domains shown)
# VH: QVQLQESGPGLVKPSQTLSLTCTVSGLSLSNAKMGVNWIRQPPGKGLEWIGYVSTTGTTDYNPSLKSRVTMSVDTSKNQFSLKVNSVTAADTAVYYCARAGYPDVWGKGTTVTVSS
# VL: DIQMTQSPSSVSASVGDRVTITCRASQNIGAALAWYQQKPGKAPKLLIYGASTREYGVPSRFSGSGSGTDFTLTISSLQPEDFANYYCQQYTAYPLTFGGGTKVEIK
# B3: AB366 (antibody, IgG1, V domains shown)
# VH: B2 VH with L27Y, S30T, N31D, K33R, M34I, V53I, S54N, T55P, T56S, T58R
# VL: DIQMTQSPSSVSASVGDRVTITCRASQTISRSLAWYQQKPGKAPKLLIYDASSLAGGVPSRFSGSGSGTDFTLTISSLQPEDFANYYCQQYSSYPSLFGGGTKVEIK
# B4: AB439 (antibody, IgG1, V domains shown)
# VH: EVQLVQSGAEVKKPGASVKVSCKASGYTYTGYRISWVRQAPGQGLEWMGWIDPKSGRTNYAQKLQGRGTMTTDPSTSTAYMELRSLRSDDTAVYYCAREVKQWLVPGRGVYWFDPWGQGTLVTVSS
# VL: ESALTQPASVSGSPGQSITISCTGTNIGLRSVSWYQQHPGKAPKLMIYDTNIRSSGVSNRFSGSKSGNTASLTISGLQAEDEADYYCSSYTSSSTDVFGGGTKLTVL
# B5: AB428 (antibody, IgG1, V domains shown)
# VH: EVQLVESGGGLVQPGGSLRLSCAASGFTSSNHWMSWVRQAPGKGLELVASIGPKGLGTYYPDSVKGRFTISRDNAKNSLYLQMNSLRAEDTAVYYCASIRDYGDKKGGSWFDPWGQGTLVTVSS
# VL: DIVMTQSPLSLPVTPGEPASISCRSSQSLLHSSGYNFLHWYLQKPGQSPQLLIYMATNRASGVPDRFSGSGSGTDFTLKISRVEAEDVGVYYCVQDLHTLPQFGGGTKVEIK
# B6: AB344 (antibody, IgG1, V domains shown)
# VH: EVQLVESGGGLVQPGGSLRLSCAASGYTFSNYGMSWVRQAPGKGLELVASISKSGSSIYYPDSVKGRFTISRDNAKNSLYLQMNSLRAEDTAVYYCARLPRLAWNYYYGMDVWGQGTTVTVSS
# VL: DIVMTQSPLSLPVTPGEPASISCRSSRSLVHGSGDNYLHWYLQKPGQSPQLLIYMASNRAPGVPDRFSGSGSGTDFTLKISRVEAEDVGVYYCVQTLQTPSTFGGGTKVEIK
# B7: AB341 (antibody, IgG1, V domains shown)
# VH: B6 VH
# VL: B5 VL with S33N, G34E, Y35K, F37Y, M55D, T57S, N58K, L100P, P101F, Q102T
# B8: AB430 (antibody, IgG1, V domains shown)
# VH: EVQLVESGGGLVQPGGSLRLSCAASGFTLSNYPMSWVRQAPGKGLELVASTTSGSSTIYYPDSVKGRFTISRDNAKNSLYLQMNSLRAEDTAVYYCARGPDYYAPLRSYMDVWGKGTTVTVSS
# VL: DIVMTQSPLSLPVTPGEPASISCRSSQSLQQSEGRTYLHWYLQKPGQSPQLLIYDASKRASGVPDRFSGSGSGTDFTLKISRVEAEDVGVYYCMQVLRTPITFGGGTKVEIK
# B9: AB438 (antibody, IgG1, V domains shown)
# VH: QVQLQESGPGLVKPSQTLSLTCTVSGVSLSNARLGVNWIRQPPGKGLEWIGYGSVTGSTDYNPSLKSRVTMSVDTSKNQFSLKVNSVTAADTAVYYCTTSYLVDTAMVTRWGQGTLVTVSS
# VL: EIVMTQSPATLSLSPGERATLSCRASQSLGTNLAWYQQKPGQAPRLLIYGASSRPSGIPARFSGSGSGTDFTLTISSLEPEDFAVYYCQQYDTHPLSFGGGTKVEIK
# B10: AB349 (antibody, IgG1, V domains shown)
# VH: B9 VH
# VL: EIVMTQSPATLSLSPGERATLSCRASQRIGSDLAWYQQKPGQAPRLLIYSASSRAPGIPARFSGSGSGTDFTLTISSLEPEDFAVYYCSTMAIPFGGGTKVEIK
# B11: AB426 (antibody, IgG1, V domains shown)
# VH: EVQLVESGGGLVQPGGSLRLSCAASGFTFSDHHMSWVRQAPGKGLELVASISPSGDFTYYPDSVKGRFTISRDNAKNSLYLQMNSLRAEDTAVYYCARDVSPVYYWGQGALVTVSS
# VL: DIVMTQSPLSLPVTPGEPASISCRSSQSLLHWYLQKPGQSPQLLIYMGSQRAAGVPDRFSGSGSGTDFTLKISRVEAEDVGVYYCQSGVTFGGGTKVEIK
# B12: AB431 (antibody, IgG1, V domains shown)
# VH: EVQLVESGGGLVQPGGSLRLSCAASGFTSSNHWMSWVRQAPGKGLELVASIGPKGLGTYYPDSVKGRFTISRDNAKNSLYLQMNSLRAEDTAVYYCARDVRGWRALYYYYGMDVWGQGTTVTVSS
# VL: DIVMTQSPLSLPVTPGEPASISCRSSQSLLHVTGYNYLHWYLQKPGQSPQLLIYGASSRAAGVPDRFSGSGSGTDFTLKISRVEAEDVGVYYCMQSTQWPHTFGGGTKVEIK
# notes: also called mAb 431
# B13: AB330 (antibody, IgG1, V domains shown)
# VH: QVQLVQSGAEVKKPGASVKVSCKVSGYPSPATISWVRQAPGKGLEWMGWMNPKSGYTNYAQKFQGRVTMTEDTSTDTAYMELSSLKSEDTAVYYCATLHGSGLAFDIWGQGTMVTVSS
# VL: DIQMTQSPSSVSASVGDRVTITCRASQDIKSDLAWYQQKPGKAPKLLIYRASARESGVPSRFSGSGSGTDFTLTISSLQPEDFANYYCQQYRSFPWSFGGGTKVEIK
# notes: also called mAb 330
# Target: T1, Mature Activin A
# Assay: ELISA, coated antigen, OD450
# Method: (§1) Antibodies were re-expressed in 40 mL cultures of Expi293 cells and purified using protein G magnetic sepharose beads (Cytiva, Marlborough, MA) to provide larger quantities for secondary screening. Secondary screening included dose responses in both functional assays described above (SMAD nuclear localization and fibroblast activations assays) as well as in binding assays to the same antigens listed in Table 3. Plates were coated with 25 μL of 3 μg/mL antigen in 384-well Maxisorp plates overnight at 4° C. with agitation. The next day, the samples in the plates were blocked with 70 μL blocking buffer (PBS+1% BSA+0.1% Tween-20) for 2 hours at room temperature. Plates were then washed three times with 100 μL of wash buffer (PBS+0.1% Tween-20). Primary antibodies in Expi293 expression medium were diluted 1:3 in blocking buffer, 25 μL added per well, and the plates were incubated for an hour at room temperature with agitation. Plates were then washed three times and 25 μL of secondary antibody (goat anti-Human IgG, HRP conjugated; Jackson Immunoresearch) diluted 1:5000 in blocking buffer was added for 30 minutes at room temperature. The wells in the plates were washed six times with wash buffer and TMB substrate was added followed by 1 M H3PO4.
row,fold-change of OD 450 over negative control (BSA) [fold],Binder
1,9.47,B1
2,3.34,B2
3,13.1,B3
4,1.45,B4
5,6.34,B5
6,3.18,B6
7,6.71,B7
8,7.58,B8
9,2.83,B9
10,5.14,B10
11,4.66,B11
12,1.04,B12

# Target: T2, Latent Activin A
# Assay: ELISA, coated antigen, OD450
# Method: as §1
row,fold-change of OD 450 over negative control (BSA) [fold],Binder
1,8.12,B1
2,2.74,B2
3,10.3,B3
4,1.45,B4
5,5.93,B5
6,2.35,B6
7,4.09,B7
8,7.44,B8
9,2.34,B9
10,4.34,B10
11,0.75,B13
12,4.81,B11
13,1,B12

# Target: T3, Inhibin A
# Assay: ELISA, coated antigen, OD450
# Method: as §1
row,fold-change of OD 450 over negative control (BSA) [fold],Binder
1,3.43,B1
2,0.77,B2
3,0.72,B3
4,3.09,B5
5,1.18,B6
6,0.81,B7
7,0.86,B8
8,0.23,B9
9,0.22,B10
10,0.97,B13
11,4.84,B11
12,1.13,B12

# Target: T4, Activin B
# Assay: ELISA, coated antigen, OD450
# Method: as §1
row,fold-change of OD 450 over negative control (BSA) [fold],Binder
1,0.76,B1
2,0.69,B2
3,0.86,B3
4,0.72,B5
5,0.75,B6
6,0.98,B7
7,0.51,B8
8,0.15,B9
9,0.27,B10
10,0.61,B13
11,0.51,B11
12,0.96,B12
